Earlier results, collected in patent publication US20150119345A1, “BILE ACID RECYCLING INHIBITORS FOR TREATMENT OF GASTROINTESTINAL INFECTIONS” (priority 2013, published 2015).

How the values were obtained:
mice = conditions: 0.1 mg/kg rat or human GLP-2 to mice for 7-10 days

GLP-2: 33 amino acid peptide, co-secreted along with GLP-1 from intestinal endocrine cells in the small and large intestine
t½ in vivo: short | small bowel weight and villus height (mice): increase in small bowel weight and villus height
